Experimental data reported in paper PMC7491322, “Molecular basis for the distinct cellular functions of the Lsm1–7 and Lsm2–8 complexes” (RNA, 2020).

B2: S. pombe Lsm3 (natural protein)
chain: not shown
notes: Lsm3, S. pombe, codon-optimised open reading frame; TEV site between GST and Lsm3; The complex was held through the GST on Lsm3 on glutathione agarose during the purification; TEV protease was added to the eluate before the later steps and the crystallisation; source: E. coli BL21(DE3) STAR pLysS, coexpressed with the other Lsm proteins, purified as part of the Lsm2–8 or Lsm1–7 complex; not …

Key:
Conditions in all cases: both partners purified
S. pombe Lsm2 [1] = target: T1, S. pombe Lsm2 (S. pombe, UniProt O94408 1-96); assay: crystal structure; Lsm2–8 ring with UUUUU-3′-OH (1.9 Å) or UUUUU>p (2.3 Å); hanging drop, 16°C, 100–200 mM KCl, 50–100 mM HEPES pH 7.4, 35% pentaerythritol propoxylate
T1 construct: Lsm2, S. pombe, codon-optimised open reading frame, no purification tag; source: E. coli BL21(DE3) STAR pLysS, coexpressed with the other Lsm proteins, purified as part of the Lsm2–8 or Lsm1–7 complex
T1 sequence (looked up): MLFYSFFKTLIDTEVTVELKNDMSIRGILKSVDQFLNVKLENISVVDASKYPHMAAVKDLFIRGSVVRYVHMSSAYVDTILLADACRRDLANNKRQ

S. pombe Lsm3 [2] = target: B2; assay: as above
S. pombe Lsm3, sequence (Q9Y7M4 whole entry): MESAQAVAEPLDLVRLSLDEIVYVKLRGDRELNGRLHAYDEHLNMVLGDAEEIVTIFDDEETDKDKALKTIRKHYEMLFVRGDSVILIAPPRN

S. pombe Lsm4 = target: T2, S. pombe Lsm4 (S. pombe, UniProt O14352 1-121); assay: as above
T2 construct: Lsm4, S. pombe, codon-optimised open reading frame; noncleavable tag; source: E. coli BL21(DE3) STAR pLysS, coexpressed with the other Lsm proteins, purified as part of the Lsm2–8 or Lsm1–7 complex; not shown: Strep-II, C-terminal, kept
T2 sequence (looked up): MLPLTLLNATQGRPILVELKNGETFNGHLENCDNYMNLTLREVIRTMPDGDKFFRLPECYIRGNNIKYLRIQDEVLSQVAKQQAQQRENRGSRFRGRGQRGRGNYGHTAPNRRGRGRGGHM

S. pombe Lsm2 [3] = target: T1, S. pombe Lsm2; assay: crystal structure; Lsm1_(Δ56C)–7 ring with UUUUUA (1.8 Å) or AUUUUG (2.1 Å); 10% PEG 8000, 20% ethylene glycol, HEPES/MOPS
S. pombe Lsm3 [4] = target: B2; assay: as above
S. pombe Lsm5 = target: T3, S. pombe Lsm5 (S. pombe, UniProt O42978 2-80); assay: as above
T3 construct: Lsm5, S. pombe, codon-optimised open reading frame, no purification tag; amino-terminal methionine missing by ESI-MS; source: E. coli BL21(DE3) STAR pLysS, coexpressed with the other Lsm proteins, purified as part of the Lsm2–8 or Lsm1–7 complex
T3 sequence (O42978 2-80): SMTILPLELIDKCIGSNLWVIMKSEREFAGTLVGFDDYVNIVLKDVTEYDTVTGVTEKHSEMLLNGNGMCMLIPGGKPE

B1: S. pombe Lsm8 (natural protein, UniProt O74483 2-94, looked up)
chain: SLADFMEQRVQVITNDGRVVLGSLKGFDHTTNLILSDSFERIISMDQDMETIPLGVYLLRGENVAMVGLVNEELDSEIEWTKIRGEAIPDVVH
notes: Lsm8, S. pombe, codon-optimised open reading frame, no purification tag; amino-terminal methionine missing by ESI-MS; source: E. coli BL21(DE3) STAR pLysS, coexpressed with the other Lsm proteins, purified as part of the Lsm2–8 complex
B1: binds (S. pombe Lsm2 [1]); binds (S. pombe Lsm3 [2]); binds (S. pombe Lsm4).

B2: binds (S. pombe Lsm2 [3]).

B3: S. pombe Lsm6 (natural protein, UniProt Q9UUI1 1-75, looked up)
chain: MDSSPNEFLNKVIGKKVLIRLSSGVDYKGILSCLDGYMNLALERTEEYVNGKKTNVYGDAFIRGNNVLYVSALDD
notes: Lsm6, S. pombe, codon-optimised open reading frame; source: E. coli BL21(DE3) STAR pLysS, coexpressed with the other Lsm proteins, purified as part of the Lsm2–8 or Lsm1–7 complex; not shown: MBP, N-terminal, cleaved
B3: binds (S. pombe Lsm3 [4]); binds (S. pombe Lsm5).
